B1: Succinate dehydrogenase assembly factor 2, mitochondrial (Homo sapiens), Q9NX18 (parent)
chain: MAVSTVFSTSSLMLALSRHSLLSPLLSVTSFRRFYRGDSPTDSQKDMIEIPLPPWQERTDESIETKRARLLYESRKRGMLENCILLSLFAKEHLQHMTEKQLNLYDRLINEPSNDWDIYYWATEAKPAPEIFENEVMALLRDFAKNKNKEQRLRAPDLEYLFEKPR

The variants in this assay derive from B1. As to conditions: with sdha_human SDHA.
On to MAVSTVFSTSSLMLALSRHSLLSPLLSVTSFRRFYRGDSPTDSQKDMIEIPLPPWQERTDESIETKRARLLYESRKRRMLENCILLSLFAKEHLQHMTEKQLNLYDRLINEPSNDWDIYYWATEAKPAPEIFENEVMALLRDFAKNKNKEQRLRAPDLEYLFEKPR [G78R], for which the “effect of a mutation on the interaction” value is given as “disrupting interaction strength”.

The record behind these values is IntAct's records for PubMed 19628817.
